Data on 4 molecules can be found in US20120225075A1 (LABRYS BIOLOGICS, published 2012).

By koff is commonly meant the rate constant with which the complex falls apart. High values mean a short-lived complex, low ones a long-lived complex. Broadly, the kon is the second-order rate constant of association. A lower kon goes with slower complex formation. As a reminder, the Kd is the concentration at which binding is half-saturated. Lower therefore signals tighter binding. As usually defined, the IC50 is the point on the concentration scale where inhibition reaches its midpoint.

In assay [1] the target is T1, N-LC-biotinylated rat α-CGRP (rat, N-LC-biotinylated).
T1 construct: Captured on a streptavidin sensor chip; also called α-rat
T1 peptide: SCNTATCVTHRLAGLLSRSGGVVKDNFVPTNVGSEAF
Kind of assay: SPR (Biacore 3000), Fab over N-biotin-CGRP captured on SA chip, 25 °C. How it is done:
(§1) Interaction analysis was conducted at 25° C. and at 37° C. on a Biacore 3000™ system equipped with streptavidin-coated (SA) sensor chips (Biacore AB, Uppsala, Sweden) using standard Biacore running buffers (HBS-P or HBS-EP). N-LC-biotinylated human and rat α- and β-CGRPs were captured on individual flow cells at low levels (typically 100 response units) to provide the reaction surfaces, while an unmodified flow cell served as a reference channel. Purified Fab fragments of antibodies G1 and G2 were generated. Typically, Fabs were prepared as a two-fold serial dilution using 0.5 μM as the top concentration and injected for 1-min at 100 μl/min allowing up to two hours for the dissociation time. Surfaces were regenerated with a mixture of 50% v/v ethanol+25 mM NaOH for G1 Fab and 2:1 v/v Pierce Gentle Elution Buffer/4M NaCl for G2 Fab. […] The binding responses were double-referenced and fit globally to a simple model using BiaEvaluation v. 4.0 software. Affinities were deduced from the quotient of the kinetic rate constants (KD=koff/kₒₙ).
In general terms: In SPR one partner is held on a chip, and binding of the other changes the refractive index at the surface.

The target in assay [2] is T2, N-LC-biotinylated human α-CGRP (human (the filing says that cynomolgus …, N-LC-biotinylated)).
T2 construct: Captured on a streptavidin sensor chip; also called α-human/cyno; α-human
T2 peptide: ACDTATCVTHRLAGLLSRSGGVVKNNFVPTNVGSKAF
Described as above. How it is done: as §1

In assay [3] the target is T3, N-LC-biotinylated rat β-CGRP (rat, N-LC-biotinylated (in the assay with CGRP on the chip)).
T3 construct: Captured on a streptavidin sensor chip for G1; also called β-rat
T3 peptide: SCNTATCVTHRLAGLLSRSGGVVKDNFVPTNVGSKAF
Description: SPR (Biacore 3000), Fab over N-biotin-CGRP captured on SA chip, 37 °C; 37 C; upper bound, 20-min dissociation. On the procedure: as §1
The dissociation of G1 Fab from α-human, β-human, and […] occurs very slowly. As such, the offrate (koff) cannot be measured accurately unless the dissociation phase is monitored for a very long time. As a general rule-of-thumb, the binding response decays at least 5% over the allowed dissociation time for the report of an accurate offrate. […]

The target in assay [4] is T4, N-LC-biotinylated human β-CGRP (human (the filing says that cynomolgus …, N-LC-biotinylated)).
T4 construct: Captured on a streptavidin sensor chip; also called β-human/cyno; β-human
T4 peptide: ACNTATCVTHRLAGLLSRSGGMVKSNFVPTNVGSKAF
Description: SPR (Biacore 3000), Fab over N-biotin-CGRP captured on SA chip, 37 °C. On the procedure: as §1

Assay [5] concerns the target T3, N-LC-biotinylated rat β-CGRP. Described as above. How it is done:
as §1

The target in assay [6] is T1, N-LC-biotinylated rat α-CGRP. The description is as above. How it is done: as §1
Assay [7] has as its target T2, N-LC-biotinylated human α-CGRP. Described as above. How it is done: as §1
For assay [8] the target is unchanged. Kind of assay: SPR (Biacore 3000), side-by-side on the same chip at 37 °C, 20-min dissociation time; 37 C; side-by-side on the same chip; 20-min dissociation. On the procedure: as §1
The results for antibody G1 are expressed in Table 1 below. […] Human and cynomolgus monkey have identical sequences; therefore, the human data also apply to cynomolgus.

Assay [9] has as its target T4, N-LC-biotinylated human β-CGRP. Description: SPR (Biacore 3000), side-by-side on the same chip, 20-min dissociation time, 37 °C; 37 C; side-by-side on the same chip; 20-min dissociation; rounded figure for three CGRPs. How it is done:
as §1
(§2) The dissociation of G1 Fab from α-human, β-human, and […] occurs very slowly. As such, the offrate (koff) cannot be measured accurately unless the dissociation phase is monitored for a very long time. As a general rule-of-thumb, the binding response decays at least 5% over the allowed dissociation time for the report of an accurate offrate. However, monitoring long dissociation times on the Biacore is hindered by baseline drift, which is particularly challenging when working at the low surface capacities required for kinetic analyses. […] As a result, the offrates for β-CGRPs cannot be resolved as accurately as those for α-CGRPs.

The target of assay [10] is T3, N-LC-biotinylated rat β-CGRP. The assay is described as above. How it is done:
as §1, §2

Assay [11] concerns the target T2, N-LC-biotinylated human α-CGRP. The assay is described as above. How it is done: as §1, §2
Another assay concerns the target T5, 125I-human α-CGRP (human, 125I label (position not given)).
T5 peptide: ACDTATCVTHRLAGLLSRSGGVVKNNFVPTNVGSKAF
Description: competition radioligand binding: 125I-human α-CGRP on SK-N-MC cell membranes (CGRP1-receptor), 25 °C; IC50 given as binding sites (IgG value multiplied by 2); 25 C; radioligand competition on SK-N-MC membranes; whole IgG, IC50 said to be converted to binding sites. On the procedure:
A binding assay was performed to measure the IC₅₀ of anti-CGRP G1 antibody in blocking human α-CGRP from binding to the CGRP1-receptor. Membranes (25 μg) from SK-N-MC cells were incubated for 90 minutes at 25° C. in incubation buffer (50 mM Tris-HCl, pH 7.4, 5 mM MgCl₂, 0.1% BSA) containing […] ¹²⁵I-human α-CGRP and varying concentrations of anti-CGRP antibody (0.015 nM-33 nM) in a total volume of 1 ml. Incubation was terminated by filtration through a glass microfiber filter (GF/B, 1 μm) which had been blocked with 0.5% polyethylenimine. The protein-bound radioactivity was determined in a gamma counter.
In general terms: In a radioligand displacement assay an active substance lowers the binding of a labelled ligand.

The target of assay [12] is T1, N-LC-biotinylated rat α-CGRP. Kind of assay: SPR (Biacore 3000), Fab over N-biotin CGRP captured on SA chip, 37 °C. On the procedure: as §1
For assay [13], the target named is T2, N-LC-biotinylated human α-CGRP. The description is as above. On the procedure: as §1
Assay [14] deals with T4, N-LC-biotinylated human β-CGRP. Kind of assay: SPR (Biacore 3000), Fab over N-biotin CGRP captured on SA chip, 25 °C. How it is done: as §1
Assay [15] has as its target T1, N-LC-biotinylated rat α-CGRP. The description is as above. On the procedure: as §1
In assay [16] the target is T2, N-LC-biotinylated human α-CGRP. The description is as above. On the procedure:
as §1

In assay [17] the target is T3, N-LC-biotinylated rat β-CGRP. Description: SPR, reverse orientation assay format (data not shown).

B1: Fab fragment of antibody G1 (Fab, V domains shown)
VH: EVQLVESGGGLVQPGGSLRLSCAASGFTFSNYWISWVRQAPGKGLEWVAEIRSESDASATHYAEAVKGRFTISRDNAKNSLYLQMNSLRAEDTAVYYCLAYFDYGLAIQNYWGQGTLVTVSS
VL: EIVLTQSPATLSLSPGERATLSCKASKRVTTYVSWYQQKPGQAPRLLIYGASNRYLGIPARFSGSGSGTDFTLTISSLEPEDFAVYYCSQSYNYPYTFGQGTKLEIK
notes: also called G1 Fab; G1 antibody
As for B1, the “T1/2” value in [1] is 187 min; in [2], 1480 min; in assay [4], 166 min; in [5], 147 min; in assay [6], 28.8 min; in [7], 318 min. Also, the koff was 6.18e-05 s⁻¹ in [1]; 7.8e-06 s⁻¹ in assay [2]; below 6.98e-05 s⁻¹ in assay [4]; below 7.85e-05 s⁻¹ in [5]; 0.000399 s⁻¹ in assay [6]; 3.63e-05 s⁻¹ in assay [7]. The association rate constant (kon) stood at 50800 M⁻¹ s⁻¹ in [1]; 186000 M⁻¹ s⁻¹ in [2]; 451000 M⁻¹ s⁻¹ in assay [4]; 516000 M⁻¹ s⁻¹ in [5]; 155000 M⁻¹ s⁻¹ in [6]; 587000 M⁻¹ s⁻¹ in assay [7]. For the same molecule, the Kd was below 0.15 nM in assay [3]; below 0.155 nM in assay [4]; below 0.152 nM in [5]; 0.163 nM in assay [8]; around 0.15 nM in assay [9]; around 0.15 nM in assay [10]. Besides, the equilibrium dissociation constant (Kd) in [11] was around 0.15 nM.

B2: anti-CGRP G1 antibody (whole IgG) (antibody, V domains shown)
VH: EVQLVESGGGLVQPGGSLRLSCAASGFTFSNYWISWVRQAPGKGLEWVAEIRSESDASATHYAEAVKGRFTISRDNAKNSLYLQMNSLRAEDTAVYYCLAYFDYGLAIQNYWGQGTLVTVSS
VL: EIVLTQSPATLSLSPGERATLSCKASKRVTTYVSWYQQKPGQAPRLLIYGASNRYLGIPARFSGSGSGTDFTLTISSLEPEDFAVYYCSQSYNYPYTFGQGTKLEIKR
notes: also called antibody G1; anti-CGRP antibody
In the assay with 125I-human α-CGRP, B2 showed a 50% inhibitory concentration (IC50) of 1.8 nM.

B3: Fab fragment of antibody G2 (Fab, V domains shown)
VH: EVQLQQSGPELVKPGASVKMSCKASGYTFTSSVMHWVKQKPGQGLEWIGYINPYNDGTKYNEKFKGKATLTSDKSSSTAYMELSSLTSEDSAVYYCAKGGNDGYWGQGTTLTVSS
VL: EIVLTQSPTTMAASPGEKITITCSASSSISSIYLHWYQQKPGFSPKVLIYRASNLASGVPARFSGSGSGTSYSLTIGTMEAEDVATYYCQQGSTIPFTFGSGTKLEIKR
notes: also called G2 Fab; G2 antibody
Take B3: the equilibrium dissociation constant (Kd) stood at 3.4 nM in assay [12]; 41.9 nM in assay [13]; 19.9 nM in [14]; 0.9 nM in assay [15]; 19.1 nM in assay [16]. The “T1/2” value is 6.8 min in assay [12]; 2.96 min in assay [13]; 7.13 min in assay [14]; 54 min in assay [15]; 10.1 min in [16]. Moreover, the koff in [12] is 0.0017 s⁻¹; in assay [13] it was 0.0039 s⁻¹; in [14], 0.00162 s⁻¹; in assay [15], 0.000214 s⁻¹; in assay [16] it was 0.00115 s⁻¹. The kon in assay [12] stood at 500000 M⁻¹ s⁻¹; in [13], 93000 M⁻¹ s⁻¹; in assay [14] it was 81400 M⁻¹ s⁻¹; in assay [15], 231000 M⁻¹ s⁻¹; in assay [16], 60300 M⁻¹ s⁻¹.

B4: antibody G2 (form in the reverse orientation assay not stated) (antibody, V domains shown)
VH: EVQLQQSGPELVKPGASVKMSCKASGYTFTSSVMHWVKQKPGQGLEWIGYINPYNDGTKYNEKFKGKATLTSDKSSSTAYMELSSLTSEDSAVYYCAKGGNDGYWGQGTTLTVSS
VL: EIVLTQSPTTMAASPGEKITITCSASSSISSIYLHWYQQKPGFSPKVLIYRASNLASGVPARFSGSGSGTSYSLTIGTMEAEDVATYYCQQGSTIPFTFGSGTKLEIK
notes: Anti-rat CGRP mouse monoclonal antibody
Regarding B4, the binding result in assay [17] is given as “binds”.
